Data published in patent publication US20250084178A1 (ARCUS BIOSCIENCES, published 2025).
Where two headings read alike, the source gives them in different places.

How the values were obtained:
[1] = biological target: T1, human CD39 expressed on the cell surface (human, UniProt P49961 1-510); experiment: FACS on CHO-K1 cells overexpressing human CD39
T1 construct: full-length human CD39 transfected into CHO-K1, or endogenous human CD39 on primary cells and cell lines, or human CD39 of knock-in mice; also called Human CD39-CHO-K1; cellular human CD39
T1 sequence: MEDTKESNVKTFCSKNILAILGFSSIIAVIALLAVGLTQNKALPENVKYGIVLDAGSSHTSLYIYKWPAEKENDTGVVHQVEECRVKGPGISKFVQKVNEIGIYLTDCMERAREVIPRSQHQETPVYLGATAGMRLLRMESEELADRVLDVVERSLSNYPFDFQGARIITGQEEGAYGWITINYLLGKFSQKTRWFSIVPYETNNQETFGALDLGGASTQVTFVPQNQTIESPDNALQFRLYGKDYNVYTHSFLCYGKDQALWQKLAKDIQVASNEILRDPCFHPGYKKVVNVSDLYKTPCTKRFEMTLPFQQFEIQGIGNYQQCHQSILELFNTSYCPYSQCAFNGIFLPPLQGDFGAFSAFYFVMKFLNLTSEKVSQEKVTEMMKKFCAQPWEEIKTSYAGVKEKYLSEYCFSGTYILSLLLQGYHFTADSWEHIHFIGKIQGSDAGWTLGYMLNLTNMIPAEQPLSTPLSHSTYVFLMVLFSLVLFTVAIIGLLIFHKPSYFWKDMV

[2] = biological target: T1, human CD39 expressed on the cell surface; experiment: cell-based or functional assay
[3] = biological target: T2, soluble His-tagged human CD39 ECD protein (human, UniProt P49961 38-478); experiment: SPR (Biacore 8K), antibody captured via anti-human Fc, CD39 ECD analyte
T2 construct: also called human CD39 ECD His-tagged antigen; Sino Biological Cat. No. 16020-H08B
T2 sequence: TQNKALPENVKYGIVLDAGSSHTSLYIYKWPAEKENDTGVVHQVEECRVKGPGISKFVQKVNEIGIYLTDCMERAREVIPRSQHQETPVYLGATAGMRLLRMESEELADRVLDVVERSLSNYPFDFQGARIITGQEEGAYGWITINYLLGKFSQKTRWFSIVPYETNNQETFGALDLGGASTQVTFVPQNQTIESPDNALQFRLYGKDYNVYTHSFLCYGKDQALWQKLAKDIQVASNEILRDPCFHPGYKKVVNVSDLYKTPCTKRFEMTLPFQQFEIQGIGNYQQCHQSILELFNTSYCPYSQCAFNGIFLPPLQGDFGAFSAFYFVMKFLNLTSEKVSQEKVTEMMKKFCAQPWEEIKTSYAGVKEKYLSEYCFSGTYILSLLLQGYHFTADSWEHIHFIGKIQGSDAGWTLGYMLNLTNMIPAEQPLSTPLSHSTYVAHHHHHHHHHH

[4] = biological target: T3, cynomolgus monkey CD39 expressed on HEK-293 cells (cynomolgus monkey, UniProt P49961 5-510 (human entry)); experiment: FACS on HEK293 cells overexpressing cynomolgus CD39
T3 construct: also called Cynomolgus Monkey CD39-HEK293
T3 chain: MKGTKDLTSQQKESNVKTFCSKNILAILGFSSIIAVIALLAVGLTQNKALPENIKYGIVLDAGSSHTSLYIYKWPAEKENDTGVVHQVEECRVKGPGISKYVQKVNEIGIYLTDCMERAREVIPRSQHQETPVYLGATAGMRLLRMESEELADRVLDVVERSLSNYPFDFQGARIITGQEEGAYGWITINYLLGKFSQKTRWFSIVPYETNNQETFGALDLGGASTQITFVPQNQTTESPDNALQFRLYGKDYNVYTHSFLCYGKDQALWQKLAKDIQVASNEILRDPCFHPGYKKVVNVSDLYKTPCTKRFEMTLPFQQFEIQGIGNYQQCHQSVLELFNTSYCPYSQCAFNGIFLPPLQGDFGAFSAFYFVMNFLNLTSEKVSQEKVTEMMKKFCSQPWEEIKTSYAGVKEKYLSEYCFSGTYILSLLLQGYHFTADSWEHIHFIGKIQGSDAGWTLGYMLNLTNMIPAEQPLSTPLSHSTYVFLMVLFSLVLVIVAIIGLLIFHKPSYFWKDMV

[5] = biological target: T1, human CD39 expressed on the cell surface; experiment: cell-based or functional assay; remark: listed apart in the source
[6] = biological target: T2, soluble His-tagged human CD39 ECD …; experiment: SPR (Biacore 8K), antibody captured via anti-human Fc, CD39 ECD analyte; remark: listed apart in the source
[7] = biological target: T1, human CD39 expressed on the cell surface; experiment: cell-based or functional assay; remark: listed apart in the source
[8] = biological target: T1, human CD39 expressed on the cell surface; experiment: cell-based or functional assay; remark: listed apart in the source
[9] = biological target: T1, human CD39 expressed on the cell surface; experiment: cell-based or functional assay; remark: listed apart in the source
[10] = biological target: T1, human CD39 expressed on the cell surface; experiment: flow cytometry on purified human CD14+ monocytes, 400 uM ATP
[11] = biological target: T1, human CD39 expressed on the cell surface; experiment: flow cytometry on purified human CD14+ monocytes, 0 uM ATP
[12] = biological target: T2, soluble His-tagged human CD39 ECD …; experiment: SPR (Biacore 8K), antibody captured via anti-human Fc, CD39 ECD analyte, 25 C
[13] = biological target: T1, human CD39 expressed on the cell surface; experiment: cell-based or functional assay; remark: listed apart in the source
[14] = biological target: T3, cynomolgus monkey CD39 expressed on …; experiment: FACS on HEK293 cells overexpressing cynomolgus CD39
[15] = biological target: T1, human CD39 expressed on the cell surface; experiment: FACS on CHO-K1 cells overexpressing human CD39; remark: listed apart in the source
[16] = biological target: T4, recombinant human CD39 (soluble) (human, UniProt P49961 38-478, limits assumed); experiment: cell-based or functional assay
T4 sequence (looked up): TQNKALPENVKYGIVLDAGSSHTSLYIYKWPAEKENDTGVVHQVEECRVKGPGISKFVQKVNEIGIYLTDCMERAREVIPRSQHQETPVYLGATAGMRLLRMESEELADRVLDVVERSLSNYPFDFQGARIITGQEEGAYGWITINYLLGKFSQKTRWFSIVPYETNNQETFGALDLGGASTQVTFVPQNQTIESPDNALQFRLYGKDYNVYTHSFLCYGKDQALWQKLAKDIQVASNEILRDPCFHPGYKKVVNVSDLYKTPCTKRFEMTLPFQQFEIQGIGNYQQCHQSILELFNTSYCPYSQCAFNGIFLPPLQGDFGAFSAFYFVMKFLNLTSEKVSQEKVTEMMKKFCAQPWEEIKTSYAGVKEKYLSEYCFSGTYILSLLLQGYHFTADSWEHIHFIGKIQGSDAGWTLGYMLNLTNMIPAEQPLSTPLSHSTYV

[17] = biological target: T5, murine CD39 expressed on HEK-293 cells (murine, UniProt P55772 1-510); experiment: FACS on HEK-293 cells overexpressing murine CD39 (method of Example 1)
T5 construct: also called mouse CD39
T5 sequence: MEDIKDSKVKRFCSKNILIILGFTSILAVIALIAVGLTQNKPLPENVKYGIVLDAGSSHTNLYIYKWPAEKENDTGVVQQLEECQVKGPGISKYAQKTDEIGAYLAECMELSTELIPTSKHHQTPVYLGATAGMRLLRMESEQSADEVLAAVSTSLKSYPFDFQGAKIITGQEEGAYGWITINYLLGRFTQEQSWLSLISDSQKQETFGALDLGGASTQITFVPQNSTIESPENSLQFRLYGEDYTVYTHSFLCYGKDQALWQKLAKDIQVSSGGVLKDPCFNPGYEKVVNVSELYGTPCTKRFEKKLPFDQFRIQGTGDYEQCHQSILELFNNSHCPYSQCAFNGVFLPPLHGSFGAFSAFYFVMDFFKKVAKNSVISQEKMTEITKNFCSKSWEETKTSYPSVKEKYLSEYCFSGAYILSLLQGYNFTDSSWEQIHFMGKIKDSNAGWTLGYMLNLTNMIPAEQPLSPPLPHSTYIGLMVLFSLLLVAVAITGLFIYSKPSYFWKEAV

Row | EC50 [1] [pM] | Human THP-1 CD39 inhibition IC50 [2] [pM] | Kd [3] [pM] | koff [3] [s⁻¹] | kon [3] [M⁻¹ s⁻¹] | EC50 [4] [pM] | IC50, CD39 enzymatic inhibition on human monocytes, 400 uM ATP [5] [pM] | Max Inhibition (%), human monocytes, 400 uM ATP [5] [%] | Kd [6] [pM] | IC50, CD39 enzymatic inhibition on human monocytes, 20 uM ATP [7] [pM] | Max Inhibition (%), human monocytes, 20 uM ATP [7] [%] | IC50, CD39 enzymatic inhibition on SK-MEL-5 cells, 20 uM ATP [8] [pM] | Max Inhibition (%), SK-MEL-5 cells [8] [%] | IC50, CD39 enzymatic inhibition on THP-1 cells, 20 uM ATP [9] [pM] | Max Inhibition (%), THP-1 cells [9] [%] | EC50 [10] [pM] | EC50 [11] [pM] | further results | Binder
1 | 1830 | 250 | 496 | 0.000615 | 1.24e+06 | 1010 |  |  |  |  |  |  |  |  |  |  |  |  | hu31.7_IGG4.P (antibody, human IgG4 S228P, kappa, V domains shown, humanized variant of antibody 31 (VH2 + VL2), IgG4 (S228P)) VH: EVQLVQSGAEVKKPGATVKISCKVSGDSITAYFMHWVQQAPGKGLEWMGRIDPDHERTKYAEKFKNRVTITADTSTNTVYMELSSLRSEDTAVYYCATERVPGFETDYWGQGVMVTVSS VL: DIVMTQSPDLAVSLGERATINCRTQQTVDHYGTTYMNWYQQKPGQPPKLLIYLASSLASGVPDRFSGSGSGTDFTLTISSLQAEDVAVYYCQQSRNLWTFGGGTKVEIKR
2 |  |  |  |  |  |  | 140 | 80 | 93.6 |  |  |  |  |  |  |  |  |  | hu39.2_IGG4.P (antibody, human IgG4 S228P, kappa, humanized variant of antibody 39 (VH1 + VL1), IgG4 (S228P)) heavy: not shown light: DIVLTQSPASLAVSPGQRATITCRASEGVKSYMHWYQQKPGQPPKLLIYKASNLASGVPARFSGSGSGTDFTLTINPVEADDTANYYCQQSWNDPTFGQGTKLEIKRTVAAPSVFIFPPSDEQLKSGTASVVCLLNNFYPREAKVQWKVDNALQSGNSQESVTEQDSKDSTYSLSSTLTLSKADYEKHKVYACEVTHQGLSSPVTKSFNRGEC
3 |  |  |  |  |  |  | 450 | 73 | 185 | 130 | 71 | 130 | 60 | 64 | 76 | 10000 |  |  | hu39.4_IGG4.P (antibody, human IgG4 S228P, kappa, humanized variant of antibody 39 (VH3 + VL1), IgG4 (S228P)) heavy: not shown light: DIVLTQSPASLAVSPGQRATITCRASEGVKSYMHWYQQKPGQPPKLLIYKASNLASGVPARFSGSGSGTDFTLTINPVEADDTANYYCQQSWNDPTFGQGTKLEIKRTVAAPSVFIFPPSDEQLKSGTASVVCLLNNFYPREAKVQWKVDNALQSGNSQESVTEQDSKDSTYSLSSTLTLSKADYEKHKVYACEVTHQGLSSPVTKSFNRGEC
4 | 1700 | 260 | 176 |  |  | 780 |  |  |  | 590 | 74 | 1100 | 71 | 95 | 73 | 26000 | 16000 |  | hu31.4_IGG4.P (antibody, human IgG4 S228P, kappa, humanized variant of antibody 31 (VH1 + VL1), IgG4 (S228P)) heavy: not shown light: DIVLTQSPALAVSPGQRATITCRTQQTVDHYGTTYMNWYQQKPGQPPKLLIYLASSLASGVPARFSGSGSGTDFTLTINPVEADDTANYYCQQSRNLWTFGGGTKVEIKRTVAAPSVFIFPPSDEQLKSGTASVVCLLNNFYPREAKVQWKVDNALQSGNSQESVTEQDSKDSTYSLSSTLTLSKADYEKHKVYACEVTHQGLSSPVTKSFNRGEC
5 | 1690 | 300 | 613 | 0.000684 | 1.12e+06 | 810 |  |  |  |  |  |  |  |  |  |  |  |  | hu31.6_IGG4.P (antibody, human IgG4 S228P, kappa, V domains shown, humanized variant of antibody 31 (VH2 + VL1), IgG4 (S228P)) VH: EVQLVQSGAEVKKPGATVKISCKVSGDSITAYFMHWVQQAPGKGLEWMGRIDPDHERTKYAEKFKNRVTITADTSTNTVYMELSSLRSEDTAVYYCATERVPGFETDYWGQGVMVTVSS VL: DIVLTQSPALAVSPGQRATITCRTQQTVDHYGTTYMNWYQQKPGQPPKLLIYLASSLASGVPARFSGSGSGTDFTLTINPVEADDTANYYCQQSRNLWTFGGGTKVEIKR
6 |  |  |  |  |  |  |  |  |  |  |  | 5400 | 55 | 750 | 75 | 49000 | 61000 | Kd [12]: 443 pM; koff [12]: 0.0004 s⁻¹; kon [12]: 902000 M⁻¹ s⁻¹; Human THP-1 CD39 inhibition IC50 [13]: 440 pM; EC50 [14]: 4300 pM; EC50 [15]: 9040 pM; IC50, inhibition of recombinant CD39 enzymatic activity, 20 uM ATP [16]: 1800 pM; Max Inhibition (%), recombinant CD39, 20 uM ATP [16]: 100%; binding result [17]: no binding | ch19_IGG4.P (antibody, human IgG4 S228P, kappa, V domains shown, rat/human chimera of antibody 19, human IgG4 (S228P), kappa) VH: QVQLKETGPGLVQPTQTLSITCTVSGFSLTSYFTQWVRQTPGKGLEWMGFIRSGGSTQYNSAFKSRLSISRDTSKNQVFLKMNSLKTEDTGVYYCARDRPDYHDGTYGVLDVWGQGASVTVSS VL: DIRMTQSPASLSASLGETVNIECLASEDIDSDLAWYQKKPGKSPQLLIYNGNALQNGVPSRFSGSGSGTHFSLKINSLQSEDVATYFCQQYINYPYTFGGGTKLELRR
